Data taken from patent publication US20240025993A1 (Novartis, published 2024).

Target: T1, human CD19 (human, UniProt P15391 20-556)
T1 construct: whole, on cells; also called huCD19; hCD19
T1 sequence (looked up): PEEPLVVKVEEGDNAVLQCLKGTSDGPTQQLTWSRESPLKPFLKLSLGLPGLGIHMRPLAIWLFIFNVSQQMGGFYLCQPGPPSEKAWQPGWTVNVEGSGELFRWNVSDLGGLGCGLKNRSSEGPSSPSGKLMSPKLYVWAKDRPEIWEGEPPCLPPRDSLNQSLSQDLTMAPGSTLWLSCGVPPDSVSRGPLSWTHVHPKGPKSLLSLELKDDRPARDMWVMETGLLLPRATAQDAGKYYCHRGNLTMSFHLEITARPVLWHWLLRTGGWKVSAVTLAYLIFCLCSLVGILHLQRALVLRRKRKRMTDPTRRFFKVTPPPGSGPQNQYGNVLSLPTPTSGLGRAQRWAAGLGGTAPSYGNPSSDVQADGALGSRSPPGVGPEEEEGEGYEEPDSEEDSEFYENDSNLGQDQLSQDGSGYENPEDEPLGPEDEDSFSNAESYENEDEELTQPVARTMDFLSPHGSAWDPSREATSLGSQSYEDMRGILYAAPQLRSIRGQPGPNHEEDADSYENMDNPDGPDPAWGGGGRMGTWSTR
Assay: summary sentence of the examples; no method at this place

binding result: binds
B1: NEG218 (antibody, V domains shown)
VH: EVQLVQSGAEVKKPGESLKISCKASGYSFTNYWMNWVRQMPGKGLEWMGMIHPSDSEIRLNQKFQGQVTLSVDKSIGTAYMQWSSLKASDTAMYYCSRWYYLSSPMDYWGQGTTVTVSS
VL: EIVMTQSPATLSVSPGERATLSCRASQDVGTAVAWYQQKPGQAPRLLIYWASTRHTGIPARFSGSGSGTEFTLTISSLQSEDFAVYFCQQYSSYPYTFGQGTKLEIK
notes: also called CD19 antibody NEG218; anti-CD19 antibody NEG218
